In patent publication US20080131882A1:
One block for each binder: values may come before it. Primed or numbered codes have the meaning given here. No end group written: not given here. Biotin′ = not defined here

Experiments:
Experiment in all cases: ELISA, biotinylated peptide on streptavidin plate
[1] = target: RhD202.158E07
[2] = target: RhD162.119G12
[3] = target: RhD305.181E06

signal-to-noise ratio [1]: 10
Binder: CAPRNPYEC-{Biotin′} (cysteine pairing not given here) [PEP202]

signal-to-noise ratio [2]: 10
Binder: CMGYGPRMC-{Biotin′} (cysteine pairing not given here) [PEP162]

signal-to-noise ratio [3]: 10
Binder: CTTLLHFLC (coupled to Biotin at the C-terminus) [PEP305]
